# Data as given in patent US20220010310A1, “An lncRNA integrates a DNA-PK-mediated DNA damage response and vascular senescence” (The Brigham and Women`s Hospital, Inc., priority 2018, published 2022).
# B1: SNHG12: T7 in vitro transcribed SNHG12 lncRNA transcript used in MST and DNA-PK kinase assays (nucleic acid, listed as Homo sapiens)
# chain: TCTAGAGCTAGCGAATTCCTTTCTCCCCGCCGCATTCCCGGTGTCGACTTACTAGCTGCAAGCCTCTGCCTGCCTTCCTGCGCGCCGTTCCCCGCTAGTCGCTGCTGCTGGCGCGCACTCGCCGGGTTTTTCCTCCCACGGCCTCGAGATGGTGGTGAATGTGGCACGGAGGAGCCGGGCCTTCCAACCCGGTGGGCCCGAGCTCCGAAAGGCCCCCTCGGCAGTGAGAGGGGCGGGAGCCCGCGGGGGCCGCGCCCTTCTCTCGCTTCGGACTGCGCAACGCTGCGCTCTGGGCTGACAGGCGGATAAAACGGTCCCATCAAGACTGAGAAAAAGCACACCAGCTATTGGCACAGCGTGGGCAGTGGGGCCTACAGGATGACTGACTTAGTCTACAGAGATCCCGGCGTACTTAAGCAGATGAAGACTCTTAAGATGACAGAAGGTGATTTTTCTGGTGATCGAGGACTTCCGGGGTAATGACAGTGATGAAATGCAGGGGACCTGGTTGCCCCCAAGTTTCCTGGCAGTGTGTGATACTGAGGAGGTGAGCTTGTTTCTGGAGCTGTGCTTTAAGGTAAAGTTGATCAGCTTAATCCTCCTGATCCCTTTCCCATCGGATCTGAACACTGGTCTTGGTGGTCGTAAAAGGAGGAAAAGTAATAGTGAAGCTGGCCTAAATGTTGTAATCTGGTATATGGCATGTGGGCTAGTTTCAGACAGGTTTCAGAGATGGTTGGATCTCTGAAATTGTAAAATGAAGTATAATCTTAGGCTAAGGGAAGGATGCGTGTGAAGCTCTGGAGGTTGGTATAGTAATAGCTGACCTATTACTGCATTTGGGAGGGATCTGTCATAGCTTCCTTGCCTCTTAATTAAGGGTGGTGTTTTTTTCTTTTAGATTCATGTTACATGTAAAGCTGTCCTCATTTGTGACTATGGACCTATGGAGTTGGGACAATCTCTATGGGAAGCAGAAGGCAAGGACCCCGGTCATTTTAGGTAGAAACAACAGCATGCTAATGCAAAAAATTATGCAGTGTGCTACTGAACTTCAGAGGTGATCAATAAAAGAAGAATAAAAAGACTAATAAAAGTAGAATTCTGATCAGGATCC
# Target: purified DNA-PK protein (Homo sapiens, UniProt P78527)
# Test: DNA-PK kinase activity, ATP to ADP conversion (luminescence)
# Type: biochemical
# Settings: 10 pmol transcript, ATP 150 μM
# Description: FIGS. 9A-I. Identification of DNA-PK as an SNHG12 interactor. (A) Illustration of lncRNA pulldown using nuclear protein extract from HUVECs for in vitro transcribed biotin-labeled SNHG12 or negative control LacZ followed by streptavidin beads pulldown. Protein eluate was sent for MS. (B) Protein hits for SNHG12 (n=2, two technical replicates each). (C) LncRNA pulldown of biotin-labeled SNHG12 compared to negative controls LacZ and antisense transcript for SNHG12 (n=3). (D) RT-qPCR analysis for intravenous delivery of biotinylated SNHG12 to the aorta (n=4 per group). P value was determined by Student's t test. […] P value was determined by Student's t test. (H) Purified DNA-PK protein was incubated with in vitro transcribed LacZ or SNHG12 transcript (10 pmol) together with ATP (150 μM) and luminescence was measured for detecting conversion to ADP. […] P value was determined by Student's t test. (I) DNA-PK protein was incubated for 1 hr with the DNA-PK kinase inhibitor NU7441 (1, 10, 100 μM) to assess DNA-PK kinase activity by luminescence (n=1). […]
# To identify the functional consequences of the interaction of SNHG12 with DNA-PK, we assessed the effect of SNHG12 on DNA-PK's kinase activity (DNA-PKcs). Incubation of purified DNA-PK protein with in vitro transcribed SNHG12 assessed the ability of DNA-PKcs to convert ATP to ADP. […]
molecule,measurement,value
B1,increase of DNA-PKcs kinase activity compared to the LacZ control,2 fold
